We go through one molecule from patent CN116751285A (UNIV HEBEI NORMAL, dated 2023).

For this assay, the target named is BSA (UniProt P02769 25-607). Put plainly: indirect ELISA, protein coated, anti-6xHis detection, OD450. A general note: ELISA stands for enzyme-linked immunosorbent assay.
Chain of BSA (P02769 25-607 limits assumed): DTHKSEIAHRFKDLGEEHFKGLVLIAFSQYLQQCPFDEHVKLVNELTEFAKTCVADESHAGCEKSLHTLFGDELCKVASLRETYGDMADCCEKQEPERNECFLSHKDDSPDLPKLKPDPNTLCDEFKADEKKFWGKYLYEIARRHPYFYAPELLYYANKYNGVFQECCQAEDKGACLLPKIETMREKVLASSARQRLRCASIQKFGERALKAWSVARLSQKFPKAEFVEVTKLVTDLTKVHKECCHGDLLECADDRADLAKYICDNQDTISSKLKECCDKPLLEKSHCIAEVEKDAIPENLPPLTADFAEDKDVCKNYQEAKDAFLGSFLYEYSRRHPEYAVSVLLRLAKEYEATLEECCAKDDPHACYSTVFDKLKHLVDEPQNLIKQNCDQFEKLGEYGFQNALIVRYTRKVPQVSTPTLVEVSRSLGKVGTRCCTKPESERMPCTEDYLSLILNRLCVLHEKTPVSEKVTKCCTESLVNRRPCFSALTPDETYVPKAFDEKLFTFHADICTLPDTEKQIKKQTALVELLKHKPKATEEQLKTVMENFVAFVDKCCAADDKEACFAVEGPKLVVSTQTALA

B1: VHH-A35R纳米抗体 (VHH)
VHH: AVQLVESGGGLAQTGGSLRLSCAASGRAFRDYAMAWFRQAPGKEREFVAAVSKTGYAIRYEDSVKGRFTISRDNAKNTVSLQMASLKVEDTAVYYCAADRTHRLGYSLRVDPLGYDDWGQGTQVTVSS
On to B1, for which the binding result is recorded as “no binding”.
